# Laboratory results from patent EP4541814A1 (Cytiva BioProcess R&D AB, dated 2025).
# Numbering of substitutions follows the chain as printed.
# B1: vh330 (SEQ ID NO:132) (VHH)
# VHH: QVQLQQSGGGSVQAGGSLRLSCTISGRTLSDYTMGWFRQRPGKEREFVAAISWSGAYTKYADSVKGRFTISRDNAKNTVWLQMNSLKPEDTAVYYCAAGPTGLLSKKATPADYDYWGQGTQVTVSS
# B2: vh327 (SEQ ID NO:118) (VHH)
# VHH: B1 VHH with A61N, W80Y
# B3: vh280 (SEQ ID NO:133) (VHH)
# VHH: B1 VHH with W80Y, S85N
# B4: vh279 (SEQ ID NO:131) (VHH)
# VHH: B1 VHH with W80F
# B5: vh331 (SEQ ID NO:140) (VHH)
# VHH: B1 VHH with W80Y, V93L
# B6: vh282 (SEQ ID NO:135) (VHH)
# VHH: B1 VHH with W80Y, S85Q
# B7: Nb277 (SEQ ID NO:129) (VHH)
# VHH: B1 VHH with W80V
# B8: vh345 (SEQ ID NO:104) (VHH)
# VHH: B1 VHH with R40A, W80Y, V93I
# B9: vh281 (SEQ ID NO:134) (VHH)
# VHH: B1 VHH with W80Y, S85T
# B10: vh269 (SEQ ID NO:120) (VHH)
# VHH: B1 VHH with A61T, W80Y
# B11: vh284 (SEQ ID NO:137) (VHH)
# VHH: B1 VHH with W80Y, V93A
# B12: vh270 (SEQ ID NO:121) (VHH)
# VHH: B1 VHH with A61S, W80Y
# B13: vh271 (SEQ ID NO:122) (VHH)
# VHH: B1 VHH with A61V, W80Y
# B14: vh118 (SEQ ID NO:80), Example 3 construct (VHH)
# VHH: B1 VHH with W80Y
# B15: vh278 (SEQ ID NO:130) (VHH)
# VHH: B1 VHH with W80A
# B16: vh344 (SEQ ID NO:98) (VHH)
# VHH: B1 VHH with T23A, W80Y, V93I
# B17: vh275 (SEQ ID NO:126) (VHH)
# VHH: B1 VHH with N77Q, W80Y
# B18: Nb276 (SEQ ID NO:128) (VHH)
# VHH: B1 VHH with W80L
# B19: vh286 (SEQ ID NO:139) (VHH)
# VHH: B1 VHH with W80Y, V93I
# B20: Nb273 (SEQ ID NO:124) (VHH)
# VHH: B1 VHH with N77S, W80Y
# B21: vh328 (SEQ ID NO:119) (VHH)
# VHH: B1 VHH with A61Q, W80Y
# B22: vh346 (SEQ ID NO:114) (VHH)
# VHH: B1 VHH with F47L, W80Y, V93I
# B23: Nb274 (SEQ ID NO:125) (VHH)
# VHH: B1 VHH with N77E, W80Y
# B24: Nb329 (SEQ ID NO:127) (VHH)
# VHH: B1 VHH with N77D, W80Y
# B25: vh257 (SEQ ID NO:101) (VHH)
# VHH: B1 VHH with R40T, W80Y
# B26: vh258 (SEQ ID NO:102) (VHH)
# VHH: B1 VHH with R40I, W80Y
# B27: vh260 (SEQ ID NO:106) (VHH)
# VHH: B1 VHH with K43Q, W80Y
# B28: vh261 (SEQ ID NO:107) (VHH)
# VHH: B1 VHH with K43R, W80Y
# B29: vh265 (SEQ ID NO:111) (VHH)
# VHH: B1 VHH with E44G, W80Y
# B30: vh264 (SEQ ID NO:110) (VHH)
# VHH: B1 VHH with E44D, W80Y
# B31: vh262 (SEQ ID NO:108) (VHH)
# VHH: B1 VHH with E44Q, W80Y
# B32: vh259 (SEQ ID NO:105) (VHH)
# VHH: B1 VHH with K43G, W80Y
# B33: vh263 (SEQ ID NO:109) (VHH)
# VHH: B1 VHH with E44A, W80Y
# B34: vh325 (SEQ ID NO:113) (VHH)
# VHH: B1 VHH with R45I, W80Y
# B35: vh266 (SEQ ID NO:112) (VHH)
# VHH: B1 VHH with R45L, W80Y
# B36: vh341 (SEQ ID NO:103) (VHH)
# VHH: B1 VHH with R40K, W80Y
# B37: vh251 (SEQ ID NO:93) (VHH)
# VHH: B1 VHH with A14T, W80Y
# B38: vh252 (SEQ ID NO:94) (VHH)
# VHH: B1 VHH with R19K, W80Y
# B39: vh254 (SEQ ID NO:97) (VHH)
# VHH: B1 VHH with T23S, W80Y
# B40: vh255 (SEQ ID NO:99) (VHH)
# VHH: B1 VHH with I24S, W80Y
# B41: vh250 (SEQ ID NO:92) (VHH)
# VHH: B1 VHH with A14S, W80Y
# B42: vh256 (SEQ ID NO:100) (VHH)
# VHH: B1 VHH with I24V, W80Y
# B43: vh247 (SEQ ID NO:89) (VHH)
# VHH: B1 VHH with Q5V, W80Y
# B44: vh249 (SEQ ID NO:91) (VHH)
# VHH: B1 VHH with Q6E, W80Y
# B45: vh248 (SEQ ID NO:90) (VHH)
# VHH: B1 VHH with Q5E, W80Y
# B46: vh253 (SEQ ID NO:95) (VHH)
# VHH: B1 VHH with R19S, W80Y
# B47: vh332 (SEQ ID NO:96) (VHH)
# VHH: B1 VHH with T23V, W80Y
# B48: vh428 (SEQ ID NO:146) fused to SEQ ID NO:160, Example 5 (VHH)
# chain (part 1 of 2): B1 VHH with Y32F, G35A, K59Y, W80Y, K106R, A108T, D114Q
# chain (part 2 of 2): not shown
# B49: vh118 (SEQ ID NO:80) fused to SEQ ID NO:160, Example 5 (VHH)
# chain (part 1 of 2): B1 VHH with W80Y
# chain (part 2 of 2): not shown
# B50: vh359 (SEQ ID NO:145) fused to SEQ ID NO:160, Example 5 (VHH)
# chain (part 1 of 2): QVQLVESGGGSVQAGGSLSLSCTISGRTLSDFTMAWFRQRPGKEREFVAAISWSGAYTYYTDSVKGRFTISRDNAKNTVYLQMQSLKPEDTAVYYCAAGPTGLLSRKTTPADYQYWGQGTQVTVSS
# chain (part 2 of 2): not shown
# B51: vh374 (SEQ ID NO:144) fused to SEQ ID NO:160, Example 5 (VHH)
# chain (part 1 of 2): B50 chain (part 1 of 2) with V5Q, E6Q, S19R, I24S, K43R, E44A, Y80F, V93I
# chain (part 2 of 2): not shown
# B52: Candidate 4A-1: vh342 fusion protein (SEQ ID NO:163) (VHH)
# VHH: B1 VHH with Q6E, S11L, A14P, T23A, I24A, R40A, E44Q, A61T, N77T, W80Y
# Biological target: T1, AAV9 viral particles (adeno-associated virus 9)
# Assay: SPR (Biacore), polypeptide amine-coupled to CM5, AAV9 analyte; response normalized to SEQ ID NO:80
row,Binder,Normalized AAV9 binding capacity (%)
1,B1,112
2,B2,109
3,B3,100
4,B4,98
5,B5,109
6,B6,88
7,B7,80
8,B8,101
9,B9,103
10,B10,85
11,B11,109
12,B12,103
13,B13,105
14,B14,100
15,B15,99
16,B16,100
17,B17,94
18,B18,92
19,B19,112
20,B20,82
21,B21,110
22,B22,100
23,B23,91
24,B24,111

# Biological target: T1, AAV9 viral particles
# Assay: as above
# Remark: another data set of the same source
row,Binder,Normalized AAV9 binding capacity (%)
1,B25,69
2,B26,87
3,B8,101
4,B27,77
5,B28,105
6,B29,101
7,B30,92
8,B31,104
9,B14,100
10,B32,72
11,B33,108
12,B22,100
13,B34,97
14,B35,115
15,B36,83

# Biological target: T1, AAV9 viral particles
# Assay: as above
# Remark: another data set of the same source
row,Binder,Normalized AAV9 binding capacity (%)
1,B37,99
2,B38,92
3,B39,73
4,B40,103
5,B41,96
6,B14,100
7,B42,102
8,B16,100
9,B43,106
10,B44,86
11,B45,105
12,B46,86
13,B47,98

# Biological target: T1, AAV9 viral particles
# Assay: SPR (Biacore 8K+), fusion protein amine-coupled to CM5, AAV9 2E12 vp/ml; response normalized to vh118
row,Binder,Normalized AAV9 binding capacity (%)
1,B48,108
2,B49,100
3,B50,86.4
4,B51,102

# Biological target: T1, AAV9 viral particles
# Assay: SPR (Biacore 8K+), fusion protein amine-coupled to CM5, AAV9 2E12 vp/ml, report point late binding
row,Binder,Binding capacity AAV9 (2E12 vp/ml) (RU)
1,B52,9920
